# T1: bacterially-expressed HHR23A substrate, P54725
# T1 chain: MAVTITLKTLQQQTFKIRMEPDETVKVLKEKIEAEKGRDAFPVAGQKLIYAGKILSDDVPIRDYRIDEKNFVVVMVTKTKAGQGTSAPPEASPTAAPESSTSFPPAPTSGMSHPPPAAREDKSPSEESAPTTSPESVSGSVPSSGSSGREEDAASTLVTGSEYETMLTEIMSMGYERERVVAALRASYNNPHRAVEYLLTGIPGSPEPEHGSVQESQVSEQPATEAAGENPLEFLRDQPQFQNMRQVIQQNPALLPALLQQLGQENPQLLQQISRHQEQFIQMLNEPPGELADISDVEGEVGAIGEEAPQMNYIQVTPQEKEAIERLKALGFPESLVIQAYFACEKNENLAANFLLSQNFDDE
# B1: myc-tagged Nedd4 isoform (accession number KIAA0093) (protein)
# chain: MATCAVEVFGLLEDEENSRIVRVRVIAGIGLAKKDILGASDPYVRVTLYDPMNGVLTSVQTKTIKKSLNPKWNEEILFRVHPQQHRLLFEVFDENRLTRDDFLGQVDVPLYPLPTENPRLERPYTFKDFVLHPRSHKSRVKGYLRLKMTYLPKTSGSEDDNAEQAEELEPGWVVLDQPDAACHLQQQQEPSPLPPGWEERQDILGRTYYVNHESRRTQWKRPTPQDNLTDAENGNIQLQAQRAFTTRRQISEETESVDNRESSENWEIIREDEATMYSNQAFPSPPPSSNLDVPTHLAEELNARLTIFGNSAVSQPASSSNHSSRRGSLQAYTFEEQPTLPVLLPTSSGLPPGWEEKQDERGRSYYVDHNSRTTTWTKPTVQATVETSQLTSSQSSAGPQSQASTSDSGQQVTQPSEIEQGFLPKGWEVRHAPNGRPFFIDHNTKTTTWEDPRLKIPAHLRGKTSLDTSNDLGPLPPGWEERTHTDGRIFYINHNIKRTQWEDPRLENVAITGPAVPYSRDYKRKYEFFRRKLKKQNDIPNKFEMKLRRATVLEDSYRRIMGVKRADFLKARLWIEFDGEKGLDYGGVAREWFFLISKEMFNPYYGLFEYSATDNYTLQINPNSGLCNEDHLSYFKFIGRVAGMAVYHGKLLDGFFIRPFYKMMLHKPITLHDMESVDSEYYNSLRWILENDPTELDLRFIIDEELFGQTHQHELKNGGSEIVVTNKNKKEYIYLVIQWRFVNRIQKQMAAFKEGFFELIPQDLIKIFDENELELLMCGLGDVDVNDWREHTKYKNGYSANHQVIQWFWKAVLMMDSEKRIRLLQFVTGTSRVPMNGFAELYGSNGPQSFTVEQWGTPEKLPRAHTCFNRLDLPPYESFEELWDKLQMAIENTQGFDGVD
# B2: catalytically inactive Nedd4 protein, bearing an alanine substitution at the active cysteine of the HECT domain (protein)
# chain: B1 chain
# B3: E6AP (purified, full-length) (protein)
# chain: MKRAAAKHLIERYYHQLTEGCGNEACTNEFCASCPTFLRMDNNAAAIKALELYKINAKLCDPHPSKKGASSAYLENSKGAPNNSCSEIKMNKKGARIDFKDVTYLTEEKVYEILELCREREDYSPLIRVIGRVFSSAEALVQSFRKVKQHTKEELKSLQAKDEDKDEDEKEKAACSAAAMEEDSEASSSRIGDSSQGDNNLQKLGPDDVSVDIDAIRRVYTRLLSNEKIETAFLNALVYLSPNVECDLTYHNVYSRDPNYLNLFIIVMENRNLHSPEYLEMALPLFCKAMSKLPLAAQGKLIRLWSKYNADQIRRMMETFQQLITYKVISNEFNSRNLVNDDDAIVAASKCLKMVYYANVVGGEVDTNHNEEDDEEPIPESSELTLQELLGEERRNKKGPRVDPLETELGVKTLDCRKPLIPFEEFINEPLNEVLEMDKDYTFFKVETENKFSFMTCPFILNAVTKNLGLYYDNRIRMYSERRITVLYSLVQGQQLNPYLRLKVRRDHIIDDALVRLEMIAMENPADLKKQLYVEFEGEQGVDEGGVSKEFFQLVVEEIFNPDIGMFTYDESTKLFWFNPSSFETEGQFTLIGIVLGLAIYNNCILDVHFPMVVYRKLMGKKGTFRDLGDSHPVLYQSLKDLLEYEGNVEDDMMITFQISQTDLFGNPMMYDLKENGDKIPITNENRKEFVNLYSDYILNKSVEKQFKAFRRGFHMVTNESPLKYLFRPEEIELLICGSRNLDFQALEETTEYDGGYTRDSVLIREFWEIVHSFTDEQKRLFLQFTTGTDRAPVGGLGKLKMIIAKNGPDTERLPTSHTCFNVLLLPEYSSKEKLKERLLKAITYAKGFGML
# Legend:
# [1] = target: T1, bacterially-expressed HHR23A substrate, …
# Sequence of AU-tagged PLC-γ1 (P19174 2-1290): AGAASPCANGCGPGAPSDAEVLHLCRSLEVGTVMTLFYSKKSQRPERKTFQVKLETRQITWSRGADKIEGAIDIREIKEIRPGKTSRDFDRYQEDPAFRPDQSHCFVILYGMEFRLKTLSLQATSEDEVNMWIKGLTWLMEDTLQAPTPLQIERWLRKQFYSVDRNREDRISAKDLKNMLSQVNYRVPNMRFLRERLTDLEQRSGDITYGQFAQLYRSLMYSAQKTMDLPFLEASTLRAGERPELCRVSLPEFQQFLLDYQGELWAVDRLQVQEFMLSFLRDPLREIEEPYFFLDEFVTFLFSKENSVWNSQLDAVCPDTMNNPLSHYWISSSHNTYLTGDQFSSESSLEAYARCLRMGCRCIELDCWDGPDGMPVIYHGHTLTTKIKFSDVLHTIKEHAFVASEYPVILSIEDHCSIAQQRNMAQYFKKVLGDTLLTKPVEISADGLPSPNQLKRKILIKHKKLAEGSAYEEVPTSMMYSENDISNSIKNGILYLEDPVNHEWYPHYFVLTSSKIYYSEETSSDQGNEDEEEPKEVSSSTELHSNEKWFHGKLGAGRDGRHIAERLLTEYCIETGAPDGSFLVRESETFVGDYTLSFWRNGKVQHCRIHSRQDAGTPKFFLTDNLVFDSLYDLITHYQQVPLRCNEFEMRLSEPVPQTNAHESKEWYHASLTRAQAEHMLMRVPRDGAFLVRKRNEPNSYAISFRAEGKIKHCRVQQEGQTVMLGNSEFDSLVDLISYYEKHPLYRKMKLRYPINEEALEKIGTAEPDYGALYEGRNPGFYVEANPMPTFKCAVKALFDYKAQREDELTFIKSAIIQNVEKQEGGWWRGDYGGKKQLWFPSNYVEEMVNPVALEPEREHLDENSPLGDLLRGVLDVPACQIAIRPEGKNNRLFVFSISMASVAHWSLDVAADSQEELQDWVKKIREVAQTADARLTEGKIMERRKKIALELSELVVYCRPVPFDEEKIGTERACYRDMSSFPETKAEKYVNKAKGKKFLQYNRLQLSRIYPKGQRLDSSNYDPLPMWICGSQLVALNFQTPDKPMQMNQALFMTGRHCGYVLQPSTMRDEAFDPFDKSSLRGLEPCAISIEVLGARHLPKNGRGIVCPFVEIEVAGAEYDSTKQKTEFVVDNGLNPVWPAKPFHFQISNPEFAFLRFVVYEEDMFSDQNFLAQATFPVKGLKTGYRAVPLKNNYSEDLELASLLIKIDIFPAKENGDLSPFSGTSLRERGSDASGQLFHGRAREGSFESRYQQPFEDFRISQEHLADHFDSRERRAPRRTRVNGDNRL
Protein,"ionomycin-dependent degradation of PLC-γ1 (HEK 293 transfection, immunoblot) (AU-tagged PLC-γ1)","trans-ubiquitination of HHR23A (in vitro reaction with E1, E2 UbcH7, ubiquitin and ATP; SDS-PAGE, anti-HHR23A immunoblot) [1]"
B1,Itch and Nedd4 both facilitated the ionomycin-dependent degradation of PLC-γ1,
B2,"did not promote this decrease (FIG. 17D; lanes 5, 6), but prevented the small but significant decrease in PLC-γ1 levels observed in ionomycin-treated cells",
B3,,time-dependent increase in the amount of ubiquitin-conjugated HHR23A substrate

# — patent publication US20070274915
